# Legend:
# [1] = target: carcinoembryonic antigen (CEA) on LS174T-CEA+ human colon carcinoma cells (human) (UniProt P06731); experiment: flow cytometry on live LS174T-CEA+ cells, detected with Alexa Fluor 488 streptavidin; percent positive staining
# [2] = target: carcinoembryonic antigen (CEA) on LS174T-CEA+ human colon carcinoma cells (human) (UniProt P06731); experiment: flow cytometry on live LS174T-CEA+ cells, detected with Qdot655SA; percent positive staining
# [3] = target: streptavidin agarose beads (ImmunoPure streptavidin coated beads, Pierce) (UniProt P22629); experiment: pull-down of 3.5 ug purified protein on streptavidin agarose beads, Western blot with SA HRP
# Sequence of UniProt P22629 (P22629 37-163 limits assumed): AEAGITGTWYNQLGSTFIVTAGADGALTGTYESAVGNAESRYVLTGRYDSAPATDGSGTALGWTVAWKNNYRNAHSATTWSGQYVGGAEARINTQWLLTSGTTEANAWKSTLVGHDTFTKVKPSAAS
# [4] = target: streptavidin agarose beads (ImmunoPure streptavidin coated beads, Pierce) (UniProt P22629); experiment: pull-down on streptavidin agarose beads, Western blot
# Sequence of UniProt P06731 (P06731 35-702): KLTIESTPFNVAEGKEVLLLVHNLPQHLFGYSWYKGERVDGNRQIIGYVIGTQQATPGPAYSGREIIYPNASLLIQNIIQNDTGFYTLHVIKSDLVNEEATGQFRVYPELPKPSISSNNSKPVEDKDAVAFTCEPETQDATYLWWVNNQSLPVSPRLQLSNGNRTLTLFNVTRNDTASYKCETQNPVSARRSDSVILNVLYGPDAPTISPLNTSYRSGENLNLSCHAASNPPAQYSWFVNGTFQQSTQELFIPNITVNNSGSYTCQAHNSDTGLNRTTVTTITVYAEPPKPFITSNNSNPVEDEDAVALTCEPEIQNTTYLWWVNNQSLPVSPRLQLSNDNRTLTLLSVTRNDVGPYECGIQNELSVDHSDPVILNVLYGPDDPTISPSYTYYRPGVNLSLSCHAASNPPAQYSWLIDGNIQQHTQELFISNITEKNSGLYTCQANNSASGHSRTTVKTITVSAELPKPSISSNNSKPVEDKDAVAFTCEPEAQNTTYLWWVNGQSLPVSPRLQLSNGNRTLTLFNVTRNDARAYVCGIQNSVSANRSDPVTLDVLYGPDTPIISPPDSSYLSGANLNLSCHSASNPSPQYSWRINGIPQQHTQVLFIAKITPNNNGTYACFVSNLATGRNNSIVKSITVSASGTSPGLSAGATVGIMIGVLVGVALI
"LS174T binding (%), Streptavidin Alexa [1] [%]","LS174T binding (%), Qdot streptavidin [2] [%]",Binding with streptavidin agarose (%) [3] [%],percent unbound [4] [%],Substance
11.7,17.7,95,,Db-BD123 (biotinylated anti-CEA T84.66 diabody fused to the 123 aa biotin acceptor domain of P. shermanii)
56,41,90,10,Db-BP15-His (biotinylated anti-CEA T84.66 diabody with 15 aa biotin acceptor peptide followed by 6xHis tag)
